This experiment has as its target T1, HLA-B*44:05 (human).
T1 construct: also called peptide-receptive MHC class I molecule
In words: UV peptide exchange, anti-b2m ELISA. The procedure, abridged:
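Peptide-receptive HLA-B*44:05 monomers after UV-induced exchange were diluted 100-fold and captured on streptavidin-coated plates for 1 h at 37 °C. Bound complexes were detected with 2 µg/ml HRP-anti-β2m (1 h, 37 °C) and TMB, read at 450 nm. β2m signal reflects peptide-stabilized complex yield.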
Background: In an ELISA, binding on a coated surface is turned into a signal by an enzyme label.

Where only a bound is given, the exact number is not on record here.

B1: TEAVLNRY (peptide)
peptide: TEAVLNRY
In turn, B1 came in with a peptide exchange yield of 20 to 50%.

B2: EDASLMGLY (peptide)
peptide: EDASLMGLY
B2 displayed a peptide exchange yield of 20 to 50%.

B3: EECDKAYSF (peptide)
peptide: EECDKAYSF
The molecule B3 gave a peptide exchange yield of 20 to 50%.

B4: TEFAVKLKI (peptide)
peptide: TEFAVKLKI
The molecule B4 yielded a peptide exchange yield of 50 to 75%.

B5: AELMDKPLTF (peptide)
peptide: AELMDKPLTF
B5 returned a peptide exchange yield of 50 to 75%.

B6: EEGRVYVY (peptide)
peptide: EEGRVYVY
As for B6, the peptide exchange yield was 20 to 50%.

B7: TEIMEKTTL (peptide)
peptide: TEIMEKTTL
The molecule B7 gave a peptide exchange yield of 50 to 75%.

B8: QEDELVKIRKY (peptide)
peptide: QEDELVKIRKY
Take B8: the peptide exchange yield lay in the range of 50 to 75%.

B9: NEFRRKLTF (peptide)
peptide: NEFRRKLTF
B9 yielded a peptide exchange yield of 50 to 75%.

B10: AETEEGIYW (peptide)
peptide: AETEEGIYW
Take B10: the peptide exchange yield is more than 75%.

B11: EECDKAFHF (peptide)
peptide: EECDKAFHF
In turn, B11 returned a peptide exchange yield of 50 to 75%.

B12: EEIENLQAQF (peptide)
peptide: EEIENLQAQF
B12 came in with a peptide exchange yield of 20 to 50%.

B13: DEVRFFKGNKY (peptide)
peptide: DEVRFFKGNKY
Take B13: the peptide exchange yield lay within 20 to 50%.

B14: SETSTGTSV (peptide)
peptide: SETSTGTSV
Regarding B14, the peptide exchange yield lay within 20 to 50%.

B15: LEWQHPSSW (peptide)
peptide: LEWQHPSSW
Consider B15, for which the peptide exchange yield is more than 75%.

B16: EEMLENVSL (peptide)
peptide: EEMLENVSL
Take B16: the peptide exchange yield lay in the range of 50 to 75%.

B17: DEMENLLTY (peptide)
peptide: DEMENLLTY
Take B17: the peptide exchange yield is more than 75%.

B18: KEKVPGITI (peptide)
peptide: KEKVPGITI
In turn, B18 yielded a peptide exchange yield of 50 to 75%.

B19: NESGKAFNY (peptide)
peptide: NESGKAFNY
Regarding B19, the peptide exchange yield was more than 75%.

B20: EECGKAFKKF (peptide)
peptide: EECGKAFKKF
Molecule B20 gave a peptide exchange yield of 50 to 75%.

B21: SEVLLTSISTF (peptide)
peptide: SEVLLTSISTF
Turning to B21, the peptide exchange yield is more than 75%.

B22: AEYQAAILHL (peptide)
peptide: AEYQAAILHL
B22 gave a peptide exchange yield of 50 to 75%.

B23: SEVEYINKY (peptide)
peptide: SEVEYINKY
For B23, the peptide exchange yield was in the range of 50 to 75%.

B24: LEQASRIWSW (peptide)
peptide: LEQASRIWSW
Molecule B24 had a peptide exchange yield of more than 75%.

B25: LENPHVQSV (peptide)
peptide: LENPHVQSV
In the case of B25, the peptide exchange yield fell in the range of 50 to 75%.

B26: IEQGRVVLW (peptide)
peptide: IEQGRVVLW
As for B26, the peptide exchange yield is more than 75%.

B27: TEFHGGLHY (peptide)
peptide: TEFHGGLHY
Regarding B27, the peptide exchange yield lay in the range of 50 to 75%.

The values above are taken from US20200087363A1 (IMMATICS BIOTECHNOLOGIES, published 2020).
